Results taken from patent US20200291123A1 (PB IMMUNE THERAPEUTICS, published 2020).

Biological target: T1, His-tagged CD40 antigen (human, UniProt P25942 21-193, limits assumed)
T1 construct: Captured on an anti-His antibody on a CM5 chip; not shown: His tag
Test: SPR, Biacore T200, CM5 chip, His-tagged CD40 captured on anti-His antibody
From the text: That is, the anti-His antibody was immobilized on the surface of the CM5 sensor chip by an amine coupling method. His-tagged CD40 antigen was captured by reacting the His-tagged CD40 antigen with the antibody and then the captured antigen was reacted with sensor chip coated with an anti-his antibody. The results were read using biocore T200 (GE Healthcare).

T1 sequence (P25942 21-193 limits assumed): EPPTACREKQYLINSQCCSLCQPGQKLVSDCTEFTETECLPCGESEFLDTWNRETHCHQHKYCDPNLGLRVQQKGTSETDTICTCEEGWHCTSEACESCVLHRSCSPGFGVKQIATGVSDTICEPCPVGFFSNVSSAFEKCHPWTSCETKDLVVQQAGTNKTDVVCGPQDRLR

Kd: 0.494 nM
koff: 0.000234 s⁻¹
kon: 474000 M⁻¹ s⁻¹
B1: anti-CD40 antibody RM8G-1 (antibody, V domains shown)
VH: LVQLKESGPGLVAPSQSLSITCTVSGFSLTDYGVGWIRQPPGKDLEWLGVMWGGGRTYYNAPLKSRLSISKDNSKSQVFLKMNSLQTDDTAMYYCVKTGQDYAVDYWGQGTSVTVSS
VL: DIVLTQSPASLAVSLGQRATISCRASKSVSTSAYSYMHWYQQKPGQPPKLLIYLASNLESGVPARFSGSGSGTDFTLNIHPVEEEDAATYYCQHSWDLPYTFGGGTKLEIK
notes: Mouse monoclonal antibody from hybridoma RM8G1 (KCLRF-BP-00336); also called RM RM8G-1; anti-CD40 RM8G-1
